Measured values from US20240166765A1 (ICONIC THERAPEUTICS, published 2024).

Tests used:
Assay in all cases: cell-based or functional assay
[1] = molecular target: T1, human Tissue Factor on MDA-MB-231 cells (human, UniProt P13726 33-295)
[2] = molecular target: T1, human Tissue Factor on MDA-MB-231 cells; remark: listed apart in the source
[3] = molecular target: human Tissue Factor (hTF), endogenously expressed on human TF-positive cells (human, UniProt P13726 33-295)
Relipidated TF = Relipidated TF (UniProt P13726 33-295, limits assumed)

B1: 5G9 (humanized TF8-5G9, CNTO 860) (antibody, V domains shown)
VH: QVQLVESGGGVVQPGRSLRLSCKASGFNIKDYYMHWVRQAPGKGLEWIGLIDPENGNTIYDPKFQGRFTISADNSKNTLFLQMDSLRPEDTAVYYCARDNSYYFDYWGQGTPVTVSS
VL: DIQMTQSPSSLSASVGDRVTITCKASQDIRKYLNWYQQKPGKAPKLLIYYATSLADGVPSRFSGSGSGTDYTFTISSLQPEDIATYYCLQHGESPYTFGQGTKLEIT
% FXa, 12.5 nM Ab [1]: 37%
% FXa, 25 nM Ab [1]: 33%
% FXa, 50 nM Ab [1]: 30%
% FXa, 100 nM Ab [1]: 30%

B2: 25G1 (antibody, human IgG1, kappa, V domains shown)
VH: QVQLVQSGAEVKKPGASVKVSCKASGYTFRSYGISWVRQAPGQGLEWMGWVAPYSGNTNYAQKLQGRVTMTTDTSTSTAYMELRSLRSDDTAVYYCARDAGTYSPYGYGMDVWGQGTTVTVSS
VL: DIQMTQSPSTLSASVGDRVTITCRASHSIDSWLAWYQQKPGKAPKLLIYKASYLESGVPSRFSGSGSGTEFTLTISSLQPDDFATYYCQLFQSLPPFTFGGGTKVEIKR
% IL8, 2.56 nM Ab [2]: 46%
% IL8, 6.4 nM Ab [2]: 12%
% IL8, 16 nM Ab [2]: 9%
% IL8, 40 nM Ab [2]: 8%
% IL8, 100 nM Ab [2]: 9%

B3: anti-TF antibody 25A5 (antibody, human IgG1, kappa, V domains shown)
VH: QVQLVQSGAEVKKPGASVKVSCKASGYTFDVYGISWVRQAPGQGLEWMGWIAPYSGNTNYAQKLQGRVTMTTDTSTSTAYMELRSLRSDDTAVYYCARDAGTYSPFGYGMDVWGQGTTVTVSS
VL: DIQMTQSPSTLSASVGDRVTITCRASESISNWLAWYQQKPGKAPKLLIYKAYSLEYGVPSRFSGSGSGTEFTLTISSLQPDDFATYYCQQFQKLPPFTFGGGTKVEIKR
% GM-CSF, 2.56 nM antibody, MDA-MB-231 cells + FVIIa [3]: 72%
% GM-CSF, 6.4 nM antibody, MDA-MB-231 cells + FVIIa [3]: 18%

B4: 25A3 (antibody, human IgG1, kappa, V domains shown)
VH: QVQLVQSGAEVKKPGASVKVSCKASGYTFDVYGISWVRQAPGQGLEWMGWIAPYSGNTNYAQKLQGRVTMTTDTSTSTAYMELRSLRSDDTAVYYCARDAGTYSPFGYGMDVWGQGTTVTVSS
VL: DIQMTQSPSTLSASVGDRVTITCQASQSINNWLAWYQQKPGKAPKLLIYKAYNLESGVPSRFSGSGSGTEFTLTISSLQPDDFATYYCQLFQSLPPFTFGGGTKVEIKR
% IL8, 2.56 nM Ab [2]: 47%
% IL8, 6.4 nM Ab [2]: 9%
% IL8, 16 nM Ab [2]: 8%
% IL8, 40 nM Ab [2]: 8%
% IL8, 100 nM Ab [2]: 8%

B5: 25A5 (antibody, human IgG1, kappa, V domains shown)
VH: QVQLVQSGAEVKKPGASVKVSCKASGYTFDVYGISWVRQAPGQGLEWMGWIAPYSGNTNYAQKLQGRVTMTTDTSTSTAYMELRSLRSDDTAVYYCARDAGTYSPFGYGMDVWGQGTTVTVSS
VL: DIQMTQSPSTLSASVGDRVTITCRASESISNWLAWYQQKPGKAPKLLIYKAYSLEYGVPSRFSGSGSGTEFTLTISSLQPDDFATYYCQQFQKLPPFTFGGGTKVEIKR
% IL8, 2.56 nM Ab [2]: 70%
% IL8, 16 nM Ab [2]: 7%
% IL8, 40 nM Ab [2]: 7%

B6: 25G9 (antibody, human IgG1, kappa, V domains shown)
VH: QVQLVQSGAEVKKPGASVKVSCKASGYTFRSYGISWVRQAPGQGLEWMGWVAPYSGNTNYAQKLQGRVTMTTDTSTSTAYMELRSLRSDDTAVYYCARDAGTYSPYGYGMDVWGQGTTVTVSS
VL: DIQMTQSPSTLSASVGDRVTITCQASQSIDSWLAWYQQKPGKAPKLLIYSASYLESGVPSRFSGSGSGTEFTLTISSLQPDDFATYYCQRFQSLPPFTFGGGTKVEIKR
% IL8, 2.56 nM Ab [2]: 51%
% IL8, 16 nM Ab [2]: 15%
% IL8, 40 nM Ab [2]: 14%
% IL8, 100 nM Ab [2]: 13%

B7: 39A (antibody, human IgG1, V domains shown)
VH: QVQLVQSGAEVKKPGSSVKVSCKASGGTFSSNAIGWVRQAPGQGLEWMGSIIPIIGFANYAQKFQGRVTITADESTSTAYMELSSLRSEDTAVYYCARDSGYYYGASSFGMDVWGQGTTVTVSS
VL: EIVMTQSPATLSVSPGERATLSCRASQSVSSNLAWYQQKPGQAPRLLIYGASTRATGIPARFSGSGSGTEFTLTISSLQSEDFAVYYCEQYNNLPLTFGGGTKVEIK
% ETP, TGA 10 min pre-incubation, 10 nM Ab (Relipidated TF): 0%
% Peak IIa, TGA […] min pre-incubation, 10 nM Ab (Relipidated TF): 13%
% Peak IIa, TGA […] min pre-incubation, 50 nM Ab (Relipidated TF): 8%
% Peak IIa, TGA […] min pre-incubation, 100 nM Ab (Relipidated TF): 7%
% ttPeak, TGA 10 min pre-incubation, 10 nM Ab (Relipidated TF): 319%
% ttPeak, TGA 10 min pre-incubation, 50 nM Ab (Relipidated TF): 491%
% ttPeak, TGA 10 min pre-incubation, 100 nM Ab (Relipidated TF): 537%
Lag Time, TGA 10 min pre-incubation, 10 nM Ab (Relipidated TF): 19.6 min
Lag Time, TGA 10 min pre-incubation, 50 nM Ab (Relipidated TF): 30.7 min
Lag Time, TGA 10 min pre-incubation, 100 nM Ab (Relipidated TF): 33.6 min
Peak IIa, TGA […] min pre-incubation, 10 nM Ab (Relipidated TF): 36 nM
Peak IIa, TGA […] min pre-incubation, 50 nM Ab (Relipidated TF): 22 nM
Peak IIa, TGA […] min pre-incubation, 100 nM Ab (Relipidated TF): 19 nM
ttPeak, TGA 10 min pre-incubation, 10 nM Ab (Relipidated TF): 29.3 min
ttPeak, TGA 10 min pre-incubation, 50 nM Ab (Relipidated TF): 41.4 min
ttPeak, TGA 10 min pre-incubation, 100 nM Ab (Relipidated TF): 44.6 min

B8: 43D (antibody, V domains shown)
VH: QVQLQQWGAGLLKPSETLSLTCAVYGGSLSGYYWSWIRQPPGKGLEWIGEIGASGSTRYNPSLKSRVTISVDTSKNQFSLKLSSVTAADTAVYYCARDTPYYYEGGYYYYMDVWGKGTTVTVSS
VL: EIVLTQSPGTLSLSPGERATLSCRASQSVSSSYLAWYQQKPGQAPRLLIYGASSRATGIPDRFSGSGSGTDFTLTISRLEPEDFAVYYCQQVGVVPYTFGGGTKVEIK
% FXa, 25 nM Ab [1]: 109%
% IL8, 2.56 nM Ab [2]: 58%
% IL8, 6.4 nM Ab [2]: 21%
% IL8, 40 nM Ab [2]: 5%
% IL8, 100 nM Ab [2]: 5%

B9: anti-TF antibody 43D (antibody, human IgG1, V domains shown)
VH: QVQLQQWGAGLLKPSETLSLTCAVYGGSLSGYYWSWIRQPPGKGLEWIGEIGASGSTRYNPSLKSRVTISVDTSKNQFSLKLSSVTAADTAVYYCARDTPYYYEGGYYYYMDVWGKGTTVTVSS
VL: EIVLTQSPGTLSLSPGERATLSCRASQSVSSSYLAWYQQKPGQAPRLLIYGASSRATGIPDRFSGSGSGTDFTLTISRLEPEDFAVYYCQQVGVVPYTFGGGTKVEIK
% GM-CSF, 2.56 nM antibody, MDA-MB-231 cells + FVIIa [3]: 56%
% GM-CSF, 6.4 nM antibody, MDA-MB-231 cells + FVIIa [3]: 24%
% GM-CSF, 16 nM antibody, MDA-MB-231 cells + FVIIa [3]: 13%
% GM-CSF, 40 nM antibody, MDA-MB-231 cells + FVIIa [3]: 11%
% GM-CSF, 100 nM antibody, MDA-MB-231 cells + FVIIa [3]: 12%

B10: 43B (antibody, V domains shown)
VH: QVQLQESGPGLVKPSQTLSLTCTVSGGSISSGQYWSWIRQHPGKGLEWIGEIYYSGSTRYNPSLKSRVTISVDTSKNQFSLKLSSVTAADTAVYYCARDAPYYYGGGYYYYMDVWGKGTTVTVSS
VL: EIVLTQSPGTLSLSPGERATLSCRASQSVSSSYLAWYQQKPGQAPRLLIYGASSRATGIPDRFSGSGSGTDFTLTISRLEPEDFAVYYCQQVGVVPYTFGGGTKVEIK
% IL8, 2.56 nM Ab [2]: 50%
% IL8, 16 nM Ab [2]: 5%
% IL8, 40 nM Ab [2]: 4%
% IL8, 100 nM Ab [2]: 4%

B11: anti-TF antibody 43B1 (antibody, human IgG1, V domains shown)
VH: QVQLQESGPGLVKPSQTLSLTCTVSGGSISSGQYWSWIRQHPGKGLEWIGEIYYSGSTRYNPSLKSRVTISVDTSKNQFSLKLSSVTAADTAVYYCARDAPYYYGGGYYYYMDVWGKGTTVTVSS
VL: EIVLTQSPGTLSLSPGERATLSCRASESVDSSYLAWYQQKPGQAPRLLIYGASTRQTGIPDRFSGSGSGTDFTLTISRLEPEDFAVYYCQQAGVVPYTFGGGTKVEIK
% GM-CSF, 2.56 nM antibody, MDA-MB-231 cells + FVIIa [3]: 50%
% GM-CSF, 6.4 nM antibody, MDA-MB-231 cells + FVIIa [3]: 16%

B12: anti-TF antibody 43B7 (antibody, human IgG1, V domains shown)
VH: QVQLQESGPGLVKPSQTLSLTCTVSGGSISSGQYWSWIRQHPGKGLEWIGEIYYSGSTRYNPSLKSRVTISVDTSKNQFSLKLSSVTAADTAVYYCARDAPYYYGGGYYYYMDVWGKGTTVTVSS
VL: EIVLTQSPGTLSLSPGERATLSCRASESVDSSYLAWYQQKPGQAPRLLIYGADSRATGIPDRFSGSGSGTDFTLTISRLEPEDFAVYYCQQDGVVPYTFGGGTKVEIK
% GM-CSF, 2.56 nM antibody, MDA-MB-231 cells + FVIIa [3]: 50%
% GM-CSF, 6.4 nM antibody, MDA-MB-231 cells + FVIIa [3]: 17%

B13: 43B7 (antibody, V domains shown)
VH: QVQLQESGPGLVKPSQTLSLTCTVSGGSISSGQYWSWIRQHPGKGLEWIGEIYYSGSTRYNPSLKSRVTISVDTSKNQFSLKLSSVTAADTAVYYCARDAPYYYGGGYYYYMDVWGKGTTVTVSS
VL: EIVLTQSPGTLSLSPGERATLSCRASESVDSSYLAWYQQKPGQAPRLLIYGADSRATGIPDRFSGSGSGTDFTLTISRLEPEDFAVYYCQQDGVVPYTFGGGTKVEIK
% IL8, 2.56 nM Ab [2]: 55%
% IL8, 6.4 nM Ab [2]: 15%
% IL8, 16 nM Ab [2]: 8%
% IL8, 40 nM Ab [2]: 4%
% IL8, 100 nM Ab [2]: 4%

B14: 54E (antibody, human IgG1, V domains shown)
VH: QVQLVQSGAEVKKPGASVKVSCKASGYTFANYYMHWVRQAPGQGLEWMGIINPSGGITVYAQKFQGRVTMTRDTSTSTVYMELSSLRSEDTAVYYCARGGSKVAALAFDIWGQGTMVTVSS
VL: DIQMTQSPSSLSASVGDRVTITCQASQDISNSLNWYQQKPGKAPKLLIYDASNLETGVPSRFSGSRSGTDFTFTISSLQPEDIATYYCQQYNFHPLTFGGGTKVEIK
% ETP, TGA 10 min pre-incubation, 10 nM Ab (Relipidated TF): 83%
% Peak IIa, TGA […] min pre-incubation, 10 nM Ab (Relipidated TF): 43%
% Peak IIa, TGA […] min pre-incubation, 50 nM Ab (Relipidated TF): 16%
% Peak IIa, TGA […] min pre-incubation, 100 nM Ab (Relipidated TF): 13%
% ttPeak, TGA 10 min pre-incubation, 10 nM Ab (Relipidated TF): 96%
% ttPeak, TGA 10 min pre-incubation, 50 nM Ab (Relipidated TF): 303%
% ttPeak, TGA 10 min pre-incubation, 100 nM Ab (Relipidated TF): 371%
ETP, TGA 10 min pre-incubation, 10 nM Ab (Relipidated TF): 1520 nM·min
Lag Time, TGA 10 min pre-incubation, 10 nM Ab (Relipidated TF): 6.5 min
Lag Time, TGA 10 min pre-incubation, 50 nM Ab (Relipidated TF): 18.3 min
Lag Time, TGA 10 min pre-incubation, 100 nM Ab (Relipidated TF): 22.3 min
Peak IIa, TGA […] min pre-incubation, 10 nM Ab (Relipidated TF): 121 nM
Peak IIa, TGA […] min pre-incubation, 50 nM Ab (Relipidated TF): 44 nM
Peak IIa, TGA […] min pre-incubation, 100 nM Ab (Relipidated TF): 37 nM
ttPeak, TGA 10 min pre-incubation, 10 nM Ab (Relipidated TF): 13.7 min
ttPeak, TGA 10 min pre-incubation, 50 nM Ab (Relipidated TF): 28.2 min
ttPeak, TGA 10 min pre-incubation, 100 nM Ab (Relipidated TF): 33 min
